# Reference: patent US20030113711A1, “Protein kinase peptide substrate determination using peptide libraries” (priority 2001, published 2003)
# Tests used:
# Format in all cases: biochemical
# [1] = substrate: CC[C@H](C)[C@H](NC(=O)[C@H](CCC(=O)O)NC(=O)[C@H](CCC(=O)O)NC(=O)[C@H](Cc1c[nH]cn1)NC(=O)[C@H](C)NC(=O)[C@H](CCCNC(=N)N)NC(=O)CCCCCNC(=O)CCCC[C@@H]1SC[C@@H]2NC(=O)N[C@@H]21)C(=O)N[C@@H](Cc1ccc(O)cc1)C(=O)N[C@@H](Cc1c[nH]cn1)C(=O)N[C@@H](Cc1ccccc1)C(=O)N[C@@H](Cc1ccccc1)C(=O)N[C@@H](Cc1ccccc1)C(=O)N[C@@H](C)C(=O)N[C@@H](CCCCN)C(=O)N[C@@H](CCCCN)C(=O)N[C@@H](CCCCN)C(N)=O; assay: Kinetic evaluation of peptide substrates, varying peptide at fixed ATP (phosphocellulose filter, [γ-33P]ATP); details: other: ErbB-4; Km for peptide; ATP concentration >10 × Km (200 μM ATP); pH 7.5; 23.0 °C
# Description: (§1) Peptide sequences identified as preferred substrates for ErbB-2 using the methods described in Laboratory Example 3 were synthesized. The kcat and Km values for each peptide were determined as follows, using the kinases ErbB-2, ErbB-4, and EGFR.
# (§2) Reactions were performed in 96-well polystyrene round bottom plates in a final volume of 45 μL. Reaction mixtures contained 50 mM MOPS, pH 7.5, 10 mM MnCl2, 1 mM dithiothreitol (DTT), 200 μM ATP, 1.0 μCi [γ-^33P] ATP, and varying concentrations of peptide. The reaction was initiated by adding the purified kinase of interest and halted after 10 minutes at 23° C. (room temperature) by adding 45 μL of 0.5% phosphoric acid in water. A 75 μL aliquot of the halted reaction mixture was then transferred to MAPH phosphocellulose filter plates (Millipore, Bedford, Mass.). The plates were filtered three times with 0.2 mL of 0.5 percent phosphoric acid. Scintillation cocktail (50 μL) was added to each well, and the plate was analyzed by counting in a Packard TOPCOUNT® scintillation counter (Packard Instrument Co., Meriden, Conn.). In these assays, the concentration of ATP was greater than ten-fold higher than the Km for ATP, which permitted the kinetic data to be treated as a pseudo-first-order reaction with varying peptide concentration. All experiments were performed in quadruplicate and the average value for each data point was analyzed. The Km and Vmax values were calculated by fitting the data to the Henri-Michaelis-Menten equation by non-linear regression using SIGMAPLOT® (SPSS Science, Chicago, Ill.). kcat values were calculated using the Vmax value, and are based on the protein concentration of the enzyme preparation and an estimate of purity determined from an evaluation of a Coomassie Blue stained SDS-polyacrylamide gel.
# [2] = substrate: CC[C@H](C)[C@H](NC(=O)[C@H](Cc1ccccc1)NC(=O)[C@H](Cc1c[nH]cn1)NC(=O)[C@H](Cc1ccc(O)cc1)NC(=O)[C@H](CCC(=O)O)NC(=O)[C@H](CCC(=O)O)NC(=O)[C@H](CCC(=O)O)NC(=O)[C@H](Cc1c[nH]cn1)NC(=O)[C@H](C)NC(=O)[C@H](CCCNC(=N)N)NC(=O)CCCCCNC(=O)CCCC[C@@H]1SC[C@@H]2NC(=O)N[C@@H]21)C(=O)N[C@@H](Cc1ccccc1)C(=O)N[C@@H](C)C(=O)N[C@@H](CCCCN)C(=O)N[C@@H](CCCCN)C(=O)N[C@@H](CCCCN)C(N)=O; assay: as above; details: other: ErbB-4; Km for peptide; ATP concentration >10 × Km (200 μM ATP); pH 7.5; 23.0 °C
# Description: as §1, §2
# [3] = substrate: CC[C@H](C)[C@H](NC(=O)[C@H](CCC(=O)O)NC(=O)[C@H](Cc1c[nH]cn1)NC(=O)[C@H](Cc1c[nH]cn1)NC(=O)[C@H](C)NC(=O)[C@H](CCCNC(=N)N)NC(=O)CCCCCNC(=O)CCCC[C@@H]1SC[C@@H]2NC(=O)N[C@@H]21)C(=O)N[C@@H](Cc1ccc(O)cc1)C(=O)N[C@@H](Cc1c[nH]cn1)C(=O)N[C@@H](Cc1ccccc1)C(=O)N[C@@H](Cc1ccccc1)C(=O)N[C@@H](Cc1ccccc1)C(=O)N[C@@H](C)C(=O)N[C@@H](CCCCN)C(=O)N[C@@H](CCCCN)C(=O)N[C@@H](CCCCN)C(N)=O; assay: as above; details: other: ErbB-4; Km for peptide; ATP concentration >10 × Km (200 μM ATP); pH 7.5; 23.0 °C
# Description: as §1, §2
# [4] = substrate: C[C@H](NC(=O)[C@H](CCCNC(=N)N)NC(=O)CCCCCNC(=O)CCCC[C@@H]1SC[C@@H]2NC(=O)N[C@@H]21)C(=O)N[C@@H](Cc1c[nH]cn1)C(=O)N[C@@H](CCC(=O)O)C(=O)N[C@@H](CCC(=O)O)C(=O)N[C@@H](CCC(=O)O)C(=O)N[C@@H](Cc1ccc(O)cc1)C(=O)N[C@@H](Cc1c[nH]cn1)C(=O)N[C@@H](Cc1ccccc1)C(=O)N[C@@H](Cc1ccccc1)C(=O)N[C@@H](Cc1ccccc1)C(=O)N[C@@H](C)C(=O)N[C@@H](CCCCN)C(=O)N[C@@H](CCCCN)C(=O)N[C@@H](CCCCN)C(N)=O; assay: as above; details: other: ErbB-4; Km for peptide; ATP concentration >10 × Km (200 μM ATP); pH 7.5; 23.0 °C
# Description: as §1, §2
# [5] = substrate: CC[C@H](C)[C@H](NC(=O)[C@H](CCC(=O)O)NC(=O)[C@H](CCC(=O)O)NC(=O)[C@H](Cc1c[nH]cn1)NC(=O)[C@H](C)NC(=O)[C@H](CCCNC(=N)N)NC(=O)CCCCCNC(=O)CCCC[C@@H]1SC[C@@H]2NC(=O)N[C@@H]21)C(=O)N[C@@H](Cc1ccc(O)cc1)C(=O)N[C@@H](Cc1c[nH]cn1)C(=O)N[C@@H](Cc1ccccc1)C(=O)N[C@@H](Cc1ccccc1)C(=O)N[C@@H](Cc1ccccc1)C(=O)N[C@@H](C)C(=O)N[C@@H](CCCCN)C(=O)N[C@@H](CCCCN)C(=O)N[C@@H](CCCCN)C(N)=O; assay: Two-substrate kinetic comparison with known substrate, peptide and ATP varied simultaneously; details: other: ErbB-4; peptide and ATP concentrations varied simultaneously, two-substrate fit
# Description: (§3) In a separate experiment, the kinetic parameters of both peptide number 1 shown in Table 2, and a peptide with the sequence Biotin-Ahx-G-G-M-E-D-I-Y-F-E-F-M-G-G-K-K-K-amide (SEQ ID NO: 17), which has been previously identified as an ErbB-2 substrate (Jan et. al., (2000), Biochemistry 39: 9786-803), were determined and compared. In this experiment, both peptide and ATP concentrations were varied, and the resulting data was simultaneously fit to an equation representing a two-substrate enzyme reaction using SIGMAPLOT®. Data was collected using the kinases ErbB-2, ErbB-4, and EGFR. The results of this experiment are shown in Table 3 and indicate that for all three kinases tested, peptide number 1 shown in Table 2 is kinetically at least equivalent (based on kcat/Km values) to the known peptide substrate identified by Jan et al.
# [6] = substrate: CC[C@H](C)[C@H](NC(=O)[C@H](CC(=O)O)NC(=O)[C@H](CCC(=O)O)NC(=O)[C@H](CCSC)NC(=O)CNC(=O)CNC(=O)CCCCCNC(=O)CCCC[C@@H]1SC[C@@H]2NC(=O)N[C@@H]21)C(=O)N[C@@H](Cc1ccc(O)cc1)C(=O)N[C@@H](Cc1ccccc1)C(=O)N[C@@H](CCC(=O)O)C(=O)N[C@@H](Cc1ccccc1)C(=O)N[C@@H](CCSC)C(=O)NCC(=O)NCC(=O)N[C@@H](CCCCN)C(=O)N[C@@H](CCCCN)C(=O)N[C@@H](CCCCN)C(N)=O; assay: as above; details: other: ErbB-4; peptide and ATP concentrations varied simultaneously, two-substrate fit
# Description: as §3
protein,measurement,setting,value
ErbB-4 (Homo sapiens) (protein) QSVCAGTENKLSSLSDLEQQYRALRKYYENCEVVMGNLEITSIEHNRDLSFLRSVREVTGYVLVALNQFRYLPLENLRIIRGTKLYEDRYALAIFLNYRKDGNFGLQELGLKNLTEILNGGVYVDQNKFLCYADTIHWQDIVRNPWPSNLTLVSTNGSSGCGRCHKSCTGRCWGPTENHCQTLTRTVCAEQCDGRCYGPYVSDCCHRECAGGCSGPKDTDCFACMNFNDSGACVTQCPQTFVYNPTTFQLEHNFNAKYTYGAFCVKKCPHNFVVDSSSCVRACPSSKMEVEENGIKMCKPCTDICPKACDGIGTGSLMSAQTVDSSNIDKFINCTKINGNLIFLVTGIHGDPYNAIEAIDPEKLNVFRTVREITGFLNIQSWPPNMTDFSVFSNLVTIGGRVLYSGLSLLILKQQGITSLQFQSLKEISAGNIYITDNSNLCYYHTINWTTLFSTINQRIVIRDNRKAENCTAEGMVCNHLCSSDGCWGPGPDQCLSCRRFSRGRICIESCNLYDGEFREFENGSICVECDPQCEKMEDGLLTCHGPGPDNCTKCSHFKDGPNCVEKCPDGLQGANSFIFKYADPDRECHPCHPNCTQGCNGPTSHDCIYYPWTGHSTLPQHARTPLIAAGVIGGLFILVIVGLTFAVYVRRKSIKKKRALRRFLETELVEPLTPSGTAPNQAQLRILKETELKRVKVLGSGAFGTVYKGIWVPEGETVKIPVAIKILNETTGPKANVEFMDEALIMASMDHPHLVRLLGVCLSPTIQLVTQLMPHGCLLEYVHEHKDNIGSQLLLNWCVQIAKGMMYLEERRLVHRDLAARNVLVKSPNHVKITDFGLARLLEGDEKEYNADGGKMPIKWMALECIHYRKFTHQSDVWSYGVTIWELMTFGGKPYDGIPTREIPDLLEKGERLPQPPICTIDVYMVMVKCWMIDADSRPKFKELAAEFSRMARDPQRYLVIQGDDRMKLPSPNDSKFFQNLLDEEDLEDMMDAEEYLVPQAFNIPPPIYTSRARIDSNRSEIGHSPPPAYTPMSGNQFVYRDGGFAAEQGVSVPYRAPTSTIPEAPVAQGATAEIFDDSCCNGTLRKPVAPHVQEDSSTQRYSADPTVFAPERSPRGELDEEGYMTPMRDKPKQEYLNPVEENPFVSRRKNGDLQALDNPEYHNASNGPPKAEDEYVNEPLYLNTFANTLGKAEYLKNNILSMPEKAKKAFDNPDYWNHSLPPRSTLQHPDYLQEYSTKYFYKQNGRIRPIVAENPEYLSEFSLKPGTVLPPPPYRHRNTVV,Km,[1],8 µM
same,kcat,[1],0.0683 s⁻¹
same,kcat/Km,[1],8500 M⁻¹ s⁻¹
same,Km,[2],12.5 µM
same,kcat,[2],0.0217 s⁻¹
same,kcat/Km,[2],1670 M⁻¹ s⁻¹
same,Km,[3],37.6 µM
same,kcat,[3],0.0767 s⁻¹
same,kcat/Km,[3],2000 M⁻¹ s⁻¹
same,Km,[4],6 µM
same,kcat,[4],0.015 s⁻¹
same,kcat/Km,[4],2500 M⁻¹ s⁻¹
same,Km,[5],41 µM
same,kcat,[5],0.105 s⁻¹
same,kcat/Km,[5],2500 M⁻¹ s⁻¹
same,Km,[6],144 µM
same,kcat,[6],0.0767 s⁻¹
same,kcat/Km,[6],533 M⁻¹ s⁻¹
